Values quoted from earlier work in patent publication US20250255929A1, “METHODS FOR REDUCING RISKS ASSOCIATED WITH HEART FAILURE AND FACTORS ASSOCIATED THEREWITH” (Stealth BioTherapeutics Inc., priority 2012, published 2025).
Square brackets hold non-standard residues; d marks the D form. Ends that are not written are not given here. Dmt = Cc1cc(O)cc(C)c1C[C@H](N)C(=O)O

System: several mammalian cell types
Settings: energy-independent manner, Zhao et al., J. Pharmacol Exp Ther., 304:425-432, 2003; cited from earlier work

2′,6′-Dmt-D-Arg-Phe-Lys-NH2 ([Dmt][dR]FK-NH2)
penetration of the plasma membrane: readily penetrates the plasma membrane
